These results are taken from patent US9371519B2, “Complex type sugar chain hydrolase” (National Institute of Advanced Industrial Science and …, priority 2011, dated 2016).

This data set in a line: Hydrolysis activity for various PA-labeled sugar chains (HPLC peak area ratio, relative to M8A). The class given is biochemical. As to conditions: 1 μM substrate, pH 5.3, 30° C. How it is done:
(§1) Using the Endo-Om partially purified enzyme solution of the present invention, hydrolysis activity for various PA-labeled commercially available sugar chains (TaKaRa-Bio Inc.) were measured, and the results are shown in the following (Table 1) together with the measurements in a literature on Endo-M (Non Patent Literature 6). The hydrolysis activity at that time was calculated from the peak area ratio between the PA-labeled sugar chain and its hydrolysate as substrates in HPLC, and the relative activity for the various sugar chains was calculated, with the hydrolysis activity for the sugar chain with an M8A structure set at 100%.
as §1, with “Endo-Cp” for “Endo-Om”, “2)” for “1)”
as §1, with “Endo-Pa” for “Endo-Om”, “3)” for “1)”
as §1, with “Endo-Zr” for “Endo-Om”, “4)” for “1)”
Comparison of hydrolysis activity for PA-labeled sugar chains having various structures was carried out as follows. A reaction solution containing a sodium acetate buffer at final concentration of 100 mM (pH 5.3), 0.5 M of NaCl, 1 μM of any of various PA-labeled sugar chains (TaKaRa-Bio Inc.), and an Endo-Om purified enzyme solution (total volume: 10 μl) was incubated at 30° C. for 3 to 12 hours, and heated at 95° C. for 5 minutes thereby stopping the enzyme reaction. The reaction solution was subjected to HPLC, and enzymatic activity was calculated from the peak area ratio between the PA-labeled sugar chain as the substrate and its hydrolysate. The column used herein was Cosmosil 5C18-ARII (2.0.150 mm, Nacalai Tesque, Inc.), the solvents were a 0.1 M ammonium acetate buffer (pH 4.0: solvent A), a 0.1 M ammonium acetate buffer (pH 4.0), and 0.5% 1-butanol (solvent B). Linear gradient elution was carried out using the solvent B: 5%-50% at a flow rate of 0.5 ml/min over a period of 24 minutes, and detection was carried out using a fluorescence detector (excitation wavelength 320 nm, and fluorescence wavelength 400 nm). The enzymatic activity was calculated with the activity hydrolyzing 1 μmol of the PA-labeled sugar chain in 1 minute under the above-described reaction conditions as 1 Unit, and the relative activity for various sugar chains were calculated with the hydrolysis activity for the sugar chain having an M8A structure as 100%. […]

[1] abbreviates: substrate drawing 1/drawing 14/drawing 27/drawing 40 (M3B structure), M8A = 100%.
Setting [2] is: substrate drawing 2/drawing 15/drawing 28/drawing 41 (M5A structure per text), M8A = 100%.
[3] abbreviates: substrate drawing 4/drawing 17/drawing 30/drawing 43 (high-mannose type M8A-PA sugar chain, set at 100%).
Setting [4] is: substrate drawing 5/drawing 18/drawing 31/drawing 44 (M9A structure per text), M8A = 100%.
The mark [5] stands for this setting: substrate drawing 7/drawing 20/drawing 33/drawing 46, M8A = 100%.
[6] abbreviates: substrate drawing 8/drawing 21/drawing 34/drawing 47, M8A = 100%.
Where [7] appears, read: substrate drawing 9/drawing 22/drawing 35/drawing 48, M8A = 100%.

B1: Endo-Zr: endo-β-N-acetylglucosaminidase from Zygosaccharomyces rouxii ATCC2623, amino acid sequence SEQ ID NO. 13, 639 amino acids (protein, listed as Zygosaccharomyces rouxii)
chain: MKRINQVPGKPEITSLYFDDLNSLQRWFDKGFMDSRDLSNVPKERYSNYVKFEKDSIITIPNLSARKTEIIVCHDFKGGYQSGHDLYPNGQYGTESCKPYSLRYPEIVDKFVYFSHHCVTIPPSPWTNYLHRHSIPVLGTLILEHYPHNGELFKKNAKGEFLYVKYLVELCRKFHFEGWLINFETVFGNNSKQVIPFLRELTARVECEIYGGSVIWYDAFTTFSNKPSHQNEVNLFNYDAYENSSQFMTNYMWDSHNVGNSLRNVGALGMHSHVALGVDVWGRNMQVCRGGFESNIAIYYAKRFGTNAVIFAPGWTYENFGEDQFYEKDDIFWGNIKSTLQLDSYSDSQLSSWFVSESKKTRYFTTFFSTGSGNFFNLNGRRISNDNWVQLGLSTPFPVNSHSYLSFKDSFVGGSCLALPLSPMENGKLHLFRFEQFIKDQQKTSDSEIRVKLSYKSLGALPPVKLVIKCFVIRRGKRSKTILKVDDVSLVLPLSHSACQTAQGSTKWAVVEQIVPLPSLESRFLEEYYVEDAHLEWTMDNNHDEWLMVPERTEDLDCKLLIGSLCLEIGPHEDNNKRQIVRNGPQLSWQDNESSFMWLKLQDGKLDSVLFTPTTKVNGKQPTILECGRNGTLKFVVKK
For the molecule B1, the “Relative activity (hydrolysis activity for PA-labeled sugar chain)” value (“Relative activity” below) under setting [1] turned out to be 85.7%; the “Relative activity” value under setting [2] is given as 39.8%; the “Relative activity” value under setting [3] was 100%; the “Relative activity” value under setting [4] is on record as 33.4%; the “Relative activity” value under setting [5] came to 13.2%; the “Relative activity” value under setting [6] is 17.3%. The “Relative activity” value under setting [7] is 30.0%.

B2: Endo-Om: endo-β-N-acetylglucosaminidase from methylotrophic yeast Ogataea minuta IFO10746, amino acid sequence SEQ ID NO. 1, 772 amino acids (protein, listed as Ogataea minuta)
chain: MAQSQLLGGAVRPVFFDKLEELRRWHTQSANLSRESELDSLNVATEPFSSYERAQTGSGSRSSEPVPGDKEDPPIKLMVCHDFKGGYQDYEDAQPLGYFPHPTGSRYFLQYPQLIDQFVYFSHHRVTVPPVNWINFCHRNGIKCFGTVIFEGNASKDFEELDRLVSRDEKGDFVFVDALIKLAAHYGFDGYLLNIETTFSNTKIAADLEPFAEQLKSGLHCLDSKNELIWYDSYVFPANKVSYTNGVTESNYNFFSLSDAFFSNYWWNIKNLQENIKNVGVLGVQKKIYVGYDVWGRGTLVGKGGFDSSLACKMIAKFKSNVALFAPAWTYESLGPKDFNQNDARFWIGLFENESSISSTVPPHSSAVYKINESSFIFYTNFSSGEGNRFFSKGSEVYRKNWVNGSLQFDLPIDLHRKDKNGLQWALDKSDAFHGGACLEIKYSEIKDENGYQIFNNQMVSDFTLFNFTKECHFPTVNVKVTYKLNHKTKSTFKIKIKYIIERRFRSVQTVRTGYLTIPLLSTSGKWFTVEESFQINLQTSHEYIVLESAHVTYDEDRSADSFFRSYIVEDSAITSVIDNEEYEKLINSEIYNDDEDEDWILVPSDVSISSSESQSNDSKTQYLGRKLFGNKSTPKTRTLEGTAPLLRIGEFAIISANNYPSSNFLAVTSVKSIESSRLEGDSLVLLNWQVGEGHQKGVCYYIIYVNGAVVGLSVAPKFIYQDTELASENSASARSNYKKSGLGSSSDRKSKVRVDSVDKLGNVFTGSEVWV
B2: the “Relative activity” value is, setting by setting: under setting [1], 55.9%; under setting [2], 13.7%; under setting [3], 100%; under setting [4], 81.3%; (substrate drawing 6/drawing 19/drawing 32/drawing 45, M8A = 100%) 0.8%; under setting [5], 5.9%. The “Relative activity” value runs as follows: under setting [6], 1.6%; under setting [7], 4.6%.
